According to patent publication US20250066509A1:

How the values were obtained:
Assay in all cases: cell-based or functional assay
[1] = biological target: human FGFR4/βKlotho receptor (human) (UniProt P22455)
[2] = biological target: human FGFR1c/βKlotho receptor (human) (UniProt P11362)
[3] = biological target: human FGFR3c/βKlotho receptor (human) (UniProt P22607)
[4] = biological target: cynomolgus monkey FGFR1c/βKlotho receptor (cynomolgus monkey)
[5] = biological target: human FGFR2c/βKlotho receptor (human) (UniProt P21802)
Chain of human FGFR2c/βKlotho receptor (human) (P21802 22-821, chain 1 of 2): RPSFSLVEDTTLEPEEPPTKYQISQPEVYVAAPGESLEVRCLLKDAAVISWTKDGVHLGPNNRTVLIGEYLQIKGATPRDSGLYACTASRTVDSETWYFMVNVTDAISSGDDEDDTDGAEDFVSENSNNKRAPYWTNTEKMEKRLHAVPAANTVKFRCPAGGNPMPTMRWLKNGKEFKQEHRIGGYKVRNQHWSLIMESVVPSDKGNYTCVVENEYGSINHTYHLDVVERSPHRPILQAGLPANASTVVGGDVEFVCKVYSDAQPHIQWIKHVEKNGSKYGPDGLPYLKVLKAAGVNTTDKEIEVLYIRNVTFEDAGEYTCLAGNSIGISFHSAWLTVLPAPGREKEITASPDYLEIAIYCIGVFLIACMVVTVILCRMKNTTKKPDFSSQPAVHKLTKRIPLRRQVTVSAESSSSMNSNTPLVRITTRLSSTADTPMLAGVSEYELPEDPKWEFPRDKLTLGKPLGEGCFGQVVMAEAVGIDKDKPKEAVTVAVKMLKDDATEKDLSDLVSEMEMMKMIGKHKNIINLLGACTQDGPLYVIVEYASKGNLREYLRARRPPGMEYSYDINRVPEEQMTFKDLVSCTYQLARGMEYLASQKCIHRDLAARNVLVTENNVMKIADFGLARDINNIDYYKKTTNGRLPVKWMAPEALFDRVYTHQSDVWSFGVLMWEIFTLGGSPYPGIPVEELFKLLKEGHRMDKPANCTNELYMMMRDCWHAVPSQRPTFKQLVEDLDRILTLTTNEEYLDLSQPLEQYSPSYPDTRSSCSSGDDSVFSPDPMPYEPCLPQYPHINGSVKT
Chain of human FGFR2c/βKlotho receptor (human) (chain, as listed by the source, chain 2 of 2): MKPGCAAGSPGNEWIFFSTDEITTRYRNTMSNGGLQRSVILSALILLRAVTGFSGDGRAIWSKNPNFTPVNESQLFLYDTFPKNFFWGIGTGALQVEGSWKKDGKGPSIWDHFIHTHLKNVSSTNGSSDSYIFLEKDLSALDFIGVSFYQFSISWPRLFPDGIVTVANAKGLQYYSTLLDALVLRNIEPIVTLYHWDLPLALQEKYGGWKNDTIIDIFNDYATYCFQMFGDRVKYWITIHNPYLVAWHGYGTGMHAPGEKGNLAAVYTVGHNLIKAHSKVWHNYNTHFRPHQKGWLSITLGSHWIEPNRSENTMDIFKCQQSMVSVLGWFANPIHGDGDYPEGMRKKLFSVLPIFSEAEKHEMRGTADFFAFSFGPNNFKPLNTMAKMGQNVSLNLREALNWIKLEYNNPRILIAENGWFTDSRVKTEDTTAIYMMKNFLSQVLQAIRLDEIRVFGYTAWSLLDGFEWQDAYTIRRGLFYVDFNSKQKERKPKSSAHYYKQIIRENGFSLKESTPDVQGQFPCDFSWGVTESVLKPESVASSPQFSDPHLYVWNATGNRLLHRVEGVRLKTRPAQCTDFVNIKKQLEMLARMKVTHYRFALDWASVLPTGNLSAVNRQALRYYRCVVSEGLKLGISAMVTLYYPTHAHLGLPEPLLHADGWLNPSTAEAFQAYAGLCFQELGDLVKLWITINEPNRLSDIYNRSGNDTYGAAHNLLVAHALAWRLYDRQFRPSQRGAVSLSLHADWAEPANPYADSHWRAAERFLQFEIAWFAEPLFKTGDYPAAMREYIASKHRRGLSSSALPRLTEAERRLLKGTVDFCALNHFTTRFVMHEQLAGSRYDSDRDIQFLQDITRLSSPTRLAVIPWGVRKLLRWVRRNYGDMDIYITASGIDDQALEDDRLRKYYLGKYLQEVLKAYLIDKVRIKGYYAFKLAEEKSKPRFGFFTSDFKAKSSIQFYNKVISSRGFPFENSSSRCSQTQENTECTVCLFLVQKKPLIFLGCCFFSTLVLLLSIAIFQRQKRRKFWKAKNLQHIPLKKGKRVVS

Chain of human FGFR3c/βKlotho receptor (human) (P22607 23-806, chain 1 of 2): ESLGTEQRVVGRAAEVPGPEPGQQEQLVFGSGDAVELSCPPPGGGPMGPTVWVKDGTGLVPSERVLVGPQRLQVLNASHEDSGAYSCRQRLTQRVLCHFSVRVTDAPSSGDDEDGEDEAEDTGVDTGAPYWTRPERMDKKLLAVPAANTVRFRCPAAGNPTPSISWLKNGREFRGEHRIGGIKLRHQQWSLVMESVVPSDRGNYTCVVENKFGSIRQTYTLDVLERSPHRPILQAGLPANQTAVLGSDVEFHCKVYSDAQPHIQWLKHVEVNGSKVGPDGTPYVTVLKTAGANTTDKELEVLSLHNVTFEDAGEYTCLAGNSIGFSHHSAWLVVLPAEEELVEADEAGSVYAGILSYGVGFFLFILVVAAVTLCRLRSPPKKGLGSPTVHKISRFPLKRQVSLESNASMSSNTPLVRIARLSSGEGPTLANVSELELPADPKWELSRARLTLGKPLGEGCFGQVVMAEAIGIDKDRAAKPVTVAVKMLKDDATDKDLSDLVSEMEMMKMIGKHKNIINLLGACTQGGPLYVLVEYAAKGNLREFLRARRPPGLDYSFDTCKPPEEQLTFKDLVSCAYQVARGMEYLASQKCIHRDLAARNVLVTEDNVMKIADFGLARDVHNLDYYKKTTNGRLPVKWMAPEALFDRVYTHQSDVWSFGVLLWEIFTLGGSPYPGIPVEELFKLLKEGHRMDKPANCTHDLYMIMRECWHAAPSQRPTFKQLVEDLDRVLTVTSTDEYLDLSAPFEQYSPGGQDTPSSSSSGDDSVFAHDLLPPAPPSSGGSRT
Chain of human FGFR3c/βKlotho receptor (human) (chain, as listed by the source, chain 2 of 2): as the sequence (chain, as listed by the source, chain 2 of 2) above
Chain of human FGFR4/βKlotho receptor (human) (P22455 22-802, chain 1 of 2): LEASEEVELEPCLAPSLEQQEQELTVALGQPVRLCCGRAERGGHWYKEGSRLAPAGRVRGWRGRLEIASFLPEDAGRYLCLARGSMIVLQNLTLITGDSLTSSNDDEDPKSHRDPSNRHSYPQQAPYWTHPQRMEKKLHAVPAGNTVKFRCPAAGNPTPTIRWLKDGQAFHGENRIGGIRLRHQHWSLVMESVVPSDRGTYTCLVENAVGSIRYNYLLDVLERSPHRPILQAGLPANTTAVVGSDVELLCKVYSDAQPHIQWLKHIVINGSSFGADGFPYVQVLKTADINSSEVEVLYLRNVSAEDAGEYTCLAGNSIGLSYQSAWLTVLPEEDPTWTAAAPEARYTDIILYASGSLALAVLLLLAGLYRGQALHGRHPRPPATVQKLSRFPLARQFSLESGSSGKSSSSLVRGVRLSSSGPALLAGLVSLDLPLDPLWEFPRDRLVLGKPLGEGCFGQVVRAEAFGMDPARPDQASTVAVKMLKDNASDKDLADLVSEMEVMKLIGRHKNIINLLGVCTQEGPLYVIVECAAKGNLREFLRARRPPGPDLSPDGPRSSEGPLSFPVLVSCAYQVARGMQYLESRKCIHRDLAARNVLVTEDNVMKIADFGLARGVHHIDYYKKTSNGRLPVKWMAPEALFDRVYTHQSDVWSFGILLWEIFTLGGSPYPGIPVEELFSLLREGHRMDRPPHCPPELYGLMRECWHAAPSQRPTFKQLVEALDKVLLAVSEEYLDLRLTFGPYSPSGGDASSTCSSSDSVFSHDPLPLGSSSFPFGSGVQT
Chain of human FGFR4/βKlotho receptor (human) (chain, as listed by the source, chain 2 of 2): as the sequence (chain, as listed by the source, chain 2 of 2) above
Chain of human FGFR1c/βKlotho receptor (human) (P11362 22-822, chain 1 of 2): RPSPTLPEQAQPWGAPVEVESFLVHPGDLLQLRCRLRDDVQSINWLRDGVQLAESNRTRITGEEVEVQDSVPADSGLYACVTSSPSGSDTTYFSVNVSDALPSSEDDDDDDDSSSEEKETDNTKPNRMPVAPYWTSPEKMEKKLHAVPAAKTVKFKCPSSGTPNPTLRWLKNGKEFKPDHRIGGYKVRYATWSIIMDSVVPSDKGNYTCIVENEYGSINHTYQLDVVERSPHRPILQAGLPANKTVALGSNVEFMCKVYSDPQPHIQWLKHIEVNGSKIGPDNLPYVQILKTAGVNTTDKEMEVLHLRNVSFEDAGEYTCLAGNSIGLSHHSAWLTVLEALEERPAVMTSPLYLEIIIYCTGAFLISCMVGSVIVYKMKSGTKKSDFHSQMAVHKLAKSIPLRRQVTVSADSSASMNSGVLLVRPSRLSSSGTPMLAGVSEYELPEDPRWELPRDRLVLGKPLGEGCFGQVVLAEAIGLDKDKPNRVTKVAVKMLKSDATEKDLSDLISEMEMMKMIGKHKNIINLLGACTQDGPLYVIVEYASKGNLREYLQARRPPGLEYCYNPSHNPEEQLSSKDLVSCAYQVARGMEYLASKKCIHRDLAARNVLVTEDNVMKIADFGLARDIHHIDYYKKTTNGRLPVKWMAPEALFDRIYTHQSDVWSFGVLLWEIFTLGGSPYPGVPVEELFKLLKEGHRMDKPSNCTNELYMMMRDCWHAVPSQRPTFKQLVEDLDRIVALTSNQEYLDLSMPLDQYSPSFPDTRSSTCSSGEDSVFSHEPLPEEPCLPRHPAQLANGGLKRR
Chain of human FGFR1c/βKlotho receptor (human) (chain, as listed by the source, chain 2 of 2): as the sequence (chain, as listed by the source, chain 2 of 2) above

## FGF19 (from UniProt O95750 25-216) (ligand)
[1]
  EC50, luciferase reporter-based assay (receptor activation): 0.05 nM
[2]
  EC50, luciferase reporter-based assay (receptor activation): 0.41 nM
[3]
  EC50, luciferase reporter-based assay (receptor activation): 0.3 nM
[4]
  EC50, luciferase reporter-based assay (receptor activation): 2.23 nM
[5]
  EC50, luciferase reporter-based assay (receptor activation): 0.27 nM
